Laboratory results from article PMC8809517, “Cofactor-independent RNA editing by a synthetic S-type PPR protein”.
Where a chain is given by its changes, count along the chain named.

T1: GFP-9S library array, motif 4 ND D124L (synthetic construct, D124L)
T1 chain: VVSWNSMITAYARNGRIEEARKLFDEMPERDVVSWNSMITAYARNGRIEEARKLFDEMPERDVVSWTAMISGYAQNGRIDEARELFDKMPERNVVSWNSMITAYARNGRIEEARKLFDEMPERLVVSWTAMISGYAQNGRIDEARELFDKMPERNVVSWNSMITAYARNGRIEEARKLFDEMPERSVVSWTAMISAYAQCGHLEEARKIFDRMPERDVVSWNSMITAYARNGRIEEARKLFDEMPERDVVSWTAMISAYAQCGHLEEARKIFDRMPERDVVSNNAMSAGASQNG

T2: GFP-9S library array, motif 4 ND D124F (synthetic construct, D124F)
T2 chain: T1 chain with L124F

T3: GFP-9S library array, motif 4 ND N98I;D124K (synthetic construct, N98I;D124K)
T3 chain: T1 chain with N98I, L124K

T4: GFP-9S library array, motif 4 ND N98D;D124W (synthetic construct, N98D;D124W)
T4 chain: T1 chain with N98D, L124W

T5: GFP-9S library array, motif 4 ND N98S;D124F (synthetic construct, N98S;D124F)
T5 chain: T1 chain with N98S, L124F

B1: IR-rpoA-U (ssRNA)
RNA: AUUAUACGUGA
B2: Cy5-rpoA-G (ssRNA)
RNA: AUUAGACGUGA
B3: Cy5-rpoA (ssRNA)
RNA: AUUACACGUGA
B4: IR-rpoA-A (ssRNA)
RNA: AUUAAACGUGA

Legend:
Assay in all cases: high-throughput RNA pulldown from lysate on Ni-NTA beads; HRP: 50 mM Tris pH 8, 150 mM NaCl, 1 mM beta-mercaptoethanol, 50 ug/ml BSA, 3 ug/ml yeast RNA, 0.5% heparin; ITC and FP: Tris pH 8, 200 mM KCl, 5% glycerol; MST: 50 mM Tris pH 8, 200 mM NaCl, 1 mM DTT, BSA, heparin, 0.05% Tween 20
Settings in all cases: tags: N-terminal His-eGFP
[1] = molecular target: T1, GFP-9S library array, motif 4 ND D124L
[2] = molecular target: T2, GFP-9S library array, motif 4 ND D124F
[3] = molecular target: T3, GFP-9S library array, motif 4 ND …
[4] = molecular target: T4, GFP-9S library array, motif 4 ND …
[5] = molecular target: T5, GFP-9S library array, motif 4 ND …

Binder	Kd ([1]; label: 5' IRDye 800CW)	Kd ([2]; label: 5' IRDye 800CW)	Kd ([3]; label: 5' IRDye 800CW)	Kd ([4]; label: 5' IRDye 800CW)	Kd ([5]; label: 5' IRDye 800CW)	Kd ([1]; label: 5' Cy5)	Kd ([2]; label: 5' Cy5)	Kd ([3]; label: 5' Cy5)	Kd ([4]; label: 5' Cy5)	Kd ([5]; label: 5' Cy5)
B1	96.6 nM	63.9 nM	183 nM	202 nM	171 nM					
B2						131 nM	140 nM	121 nM	178 nM	77.7 nM
B3						105 nM	109 nM	131 nM	134 nM	39 nM
B4	291 nM	202 nM	197 nM	572 nM	76.7 nM					
